Measurements published in paper doi:10.1101/2021.09.06.458672.

Target: plectasin variant D9S Q14K V36L (PPI42)
Assay: dynamic light scattering

plectasin variant D9S Q14K V36L (PPI42) (peptide)
mass fraction of medium sized oligomers and protein fibrils: < 2.5 % mass
